Data as given in patent US7364741B1, “Peptides of human Papilloma virus for use in human T cell response inducing compositions” (priority 1992, dated 2008).
Like-named read-outs stand apart in the source and are kept apart here.

Assays:
HLA-A2.1 = biological target: T1, HLA-A2.1 (Homo sapiens, UniProt P04439, D140Y/D185E/D98H/E176V/E277Q/G131W/G231S/I119V/I121R/I166T/I218V/L300P/L318F/N151K/N90K/P208A/P217A/Q86G/Q94H/R138H/R169H/T345S); assay type: cell-based
T1 construct: endogenous in cells; host or cells: 174CEM.T2
Method: Of all peptides a dilution of 1 mg/ml in 0.9% NaCl was made.
174CEM.T2 cells were cultured in Iscovel's modified Dulbecco's medium (Biochrom KG Seromed Berlin, Germany: F0465) supplemented with 100 IU/ml penicillin (Biocades Pharma, Leiderdorp, The Netherlands), 100 μg/ml kanamycin (Sigma St. Louis, USA:K-0254), 2 mM glutamine (ICN Biomedicals Inc. Costa Mesa, Calif., USA:15-801-55) and 10% fetal calf serum (FCS, Hyclone Laboratories Inc. Logan, Utah, USA:A-1115-L). Cells were cultured at a density of 2.5×10^5/ml during 3 days at 37° C., 5% CO2 in humified air.
174CEM.T2 cells were washed twice in culture medium without FCS and put in serum-free culture medium to a density of 2×10^6 cells/ml. Of this suspension 40 μl was put into a V bottomed 96 well plate (Greiner GmbH, Frickenhausen, Germany: 651101) together with 10 μl of the individual peptide dilutions (of 1 mg/ml). The end concentration is 200 μg/ml peptide with 8×10^4 174CEM.T2 cells. This solution was gently agitated for 3 minutes after which an incubation time of 16 hours at 37° C., 5% CO2 in humified air took place. Then cells were washed once with 100 μl 0.9% NaCl, 0.5% bovine serum albumin (Sigma St. Louis, USA: A-7409), 0.02% NaN3 (Merck Darmstadt, Germany:822335). After a centrifuge round of 1200 rpm the pellet was resuspended in 50 μl of saturating amounts of HLA-A2.1 specific mouse monoclonal antibody BB7.2 for 30 minutes at 4° C. Then cells were washed twice and incubated for 30 minutes with F(ab)2 fragments of goat anti-mouse IgG that had been conjugated with […] (Tago Inc Burlingame, Calif., USA: 4350) in a dilution of 1:40 and a total volume of 25 μl.
After the last incubation, cells were washed twice and fluorescence was measured at 488 nanometer on a FACScan flow-cytometer (Becton Dickinson, Franklin Lakes, N.J., USA).
The 174CEM.T2 cell line expresses “empty” and unstable HLA-A2.1 molecules that can be stabilized when a peptide is binding to the peptide presenting groove of these molecules. […] This leads to an increase in cell surface expression of the HLA-A2.1 molecule.
With background fluorescence level (without adding peptides) set on a Fluorescence Index level of 0, binding of a peptide was regarded positive when the level of fluorescence was ≧0.5.

HLA-A3.2 = biological target: T2, HLA-A3.2 (Homo sapiens, UniProt P04439); assay type: binding
T2 construct: endogenous in cells; host or cells: EBV transformed cell line GM3107 (protein purified from NP40 lysate)
Description: (§1) The method utilizes purified class I molecules and radiolabeled synthetic probes based on consensus peptides. Competitor peptides tested for their binding to the class I molecules compete for this binding with the radiolabeled consensus peptides. The HLA-A1, A2.1, A3.2, A11.2, and A24 molecules were isolated from the following cell lines, respectively: the EBV (Eppstein Barr Virus) transformed cell line Steinlin, the EBV transformed cell line JY, the EBV transformed cell line GM3107, the cell line BVR and the EBV transformed cell line KT3. After large scale culture, cells were lysed in NP40 (Fluka Biochemika, Buchs, Switzerland) and the lysate was passed over two pre-columns of inactivated sepharose CL 4B and Prot A Sepharose. Class I molecules were then purified from the cell lysate by affinity chromatography using Prot A Sepharose beads conjugated with B2.23.2 (anti-HLA-B and HLA-C) and anti-human HLA. The lysate was first depleted of B and C molecules by repeated passage over the B2.23.2 column.
(§2) After two days at 23° C. the percent of MHC-bound radioactivity was measured by size exclusion chromatography on a TSK2000 gel filtration as described by Sette et al. (1992).
(§3) Probe peptides were iodinated by using the Chloramine T method described by Buus et al. (1987). The sequences of the probe peptides used for the aforementioned HLA molecules were […] (SEQ ID NO:76) for A1, […] (SEQ ID NO:77) for A2.1, […] (SEQ ID NO:78) for A3.2, […] (SEQ ID NO:79) for A11.2, and […] (SEQ ID NO:80) for A24.
(§4) Each competitor peptide was tested in two to four completely independent experiments. Since cysteine containing peptides are susceptible to (air) oxidation during synthesis and handling, these peptides were synthesized with an alanine instead of a cysteine.

HLA-A11.2 = experiment: Immunochemical peptide-MHC binding assay, purified HLA-A11.2, radiolabeled probe […]; parameters: species or system human; details: for binding ratio to standard: IC50 of standard divided by IC50 of tested peptide, cysteines synthesized as alanine
Description: as §1, §2, §3, §4

[1] = HPV16 peptides, 200 μg/ml peptide, 16 hours, 174CEM.T2 cells
[2] = HPV16 peptides, 200 μg/ml peptide, 16 hours, 174CEM.T2 cells, background set on 0, binding positive when ≧0.5
[3] = HLA-A3.2, IC50 of standard divided by IC50 of tested peptide, cysteines synthesized as alanine
[4] = HPV18 peptides, 200 μg/ml peptide, 16 hours, 174CEM.T2 cells
[5] = HPV18 peptides, 200 μg/ml peptide, 16 hours, 174CEM.T2 cells, background set on 0, binding positive when ≧0.5

T2 sequence (P04439 25-365): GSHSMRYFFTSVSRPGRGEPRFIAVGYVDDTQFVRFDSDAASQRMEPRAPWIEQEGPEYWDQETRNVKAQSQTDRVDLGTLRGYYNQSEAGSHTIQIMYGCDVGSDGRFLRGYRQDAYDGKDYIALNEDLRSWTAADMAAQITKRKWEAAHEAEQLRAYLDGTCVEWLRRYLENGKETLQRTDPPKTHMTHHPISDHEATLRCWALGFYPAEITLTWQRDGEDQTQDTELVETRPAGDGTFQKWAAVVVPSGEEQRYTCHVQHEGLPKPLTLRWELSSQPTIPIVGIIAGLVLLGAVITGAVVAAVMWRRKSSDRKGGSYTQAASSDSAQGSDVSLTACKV
T2 sequence (P61769 21-119, further chain): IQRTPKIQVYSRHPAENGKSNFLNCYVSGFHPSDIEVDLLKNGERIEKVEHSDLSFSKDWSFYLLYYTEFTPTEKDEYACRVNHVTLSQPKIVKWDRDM

IHDIILECV [HPV16 peptide 7, residues 30-38 of HPV16 protein E6]
MF (mean HLA-A2.1 fluorescence) (HLA-A2.1; [1]): 150.7 | FI (Fluorescence Index) (HLA-A2.1; [2]): 1.3

CCKCDSTLR [residues 58-66 of HPV16 protein E7]
binding ratio to standard (HLA-A3.2; [3]): 0.0016 | binding ratio to standard (HLA-A11.2): 0.0110

HLDKKQRFH [residues 125-133 of HPV16 protein E6]
binding ratio to standard (HLA-A3.2; [3]): 0.4400

LIRCINCQK [residues 107-115 of HPV16 protein E6]
binding ratio to standard (HLA-A3.2; [3]): 3.7000 | binding ratio to standard (HLA-A11.2): 0.0120

VCPICSQKP [residues 90-98 of HPV16 protein E7]
binding ratio to standard (HLA-A11.2): 0.0012

CC[C@H](C)[C@H](NC(=O)CNC(=O)[C@H](CC(C)C)NC(=O)[C@@H](N)[C@@H](C)O)C(=O)N[C@H](C(=O)N[C@@H](CS)C(=O)N1CCC[C@H]1C(=O)N[C@H](C(=O)N[C@@H](CS)C(=O)O)[C@@H](C)CC)C(C)C [HPV16 peptide 18]
MF (mean HLA-A2.1 fluorescence) (HLA-A2.1; [1]): 227.8 | FI (Fluorescence Index) (HLA-A2.1; [2]): 2.5

CMSCCRSSR [residues 143-151 of HPV16 protein E6]
binding ratio to standard (HLA-A3.2; [3]): 0.1800 | binding ratio to standard (HLA-A11.2): 0.0084

YAVCDKCLK [residues 67-75 of HPV16 protein E6]
binding ratio to standard (HLA-A3.2; [3]): 0.0012 | binding ratio to standard (HLA-A11.2): 0.0074

FAFKDLFVV [HPV18 peptide 7, residues 47-55 of HPV18 protein E6]
MF (mean HLA-A2.1 fluorescence) (HLA-A2.1; [4]): 462.9 | FI (Fluorescence Index) (HLA-A2.1; [5]): 2.3

AVCDKCLKF [residues 68-76 of HPV16 protein E6]
binding ratio to standard (HLA-A3.2; [3]): 0.0056 | binding ratio to standard (HLA-A11.2): 0.0037

QLFLNTLSF [HPV18 peptide 12, residues 88-96 of HPV18 protein E7]
MF (mean HLA-A2.1 fluorescence) (HLA-A2.1; [4]): 258.2 | FI (Fluorescence Index) (HLA-A2.1; [5]): 0.8

LSFVCPWCA [HPV18 peptide 14, residues 94-102 of HPV18 protein E7]
MF (mean HLA-A2.1 fluorescence) (HLA-A2.1; [4]): 262.0 | FI (Fluorescence Index) (HLA-A2.1; [5]): 0.9

SCCRSSRTR [residues 145-153 of HPV16 protein E6]
binding ratio to standard (HLA-A3.2; [3]): 0.0200 | binding ratio to standard (HLA-A11.2): 0.0330

EITCVYCKT [HPV18 peptide 4, residues 29-37 of HPV18 protein E6]
MF (mean HLA-A2.1 fluorescence) (HLA-A2.1; [4]): 206.0 | FI (Fluorescence Index) (HLA-A2.1; [5]): 0.5

FQQLFLNTL [HPV18 peptide 11, residues 86-94 of HPV18 protein E7]
MF (mean HLA-A2.1 fluorescence) (HLA-A2.1; [4]): 244.5 | FI (Fluorescence Index) (HLA-A2.1; [5]): 0.8

DTLEKLTNT [HPV18 peptide 8, residues 88-96 of HPV18 protein E6]
MF (mean HLA-A2.1 fluorescence) (HLA-A2.1; [4]): 238.2 | FI (Fluorescence Index) (HLA-A2.1; [5]): 0.7

TGRCMSCCR [residues 140-148 of HPV16 protein E6]
binding ratio to standard (HLA-A11.2): 0.0012

TIHDIILEC [HPV16 peptide 6, residues 29-37 of HPV16 protein E6]
MF (mean HLA-A2.1 fluorescence) (HLA-A2.1; [1]): 184.5 | FI (Fluorescence Index) (HLA-A2.1; [2]): 1.8

KFYSKISEY [residues 75-83 of HPV16 protein E6]
binding ratio to standard (HLA-A3.2): 0.0100

ELQTTIHDI [HPV16 peptide 4, residues 25-33 of HPV16 protein E6]
MF (mean HLA-A2.1 fluorescence) (HLA-A2.1; [1]): 108.0 | FI (Fluorescence Index) (HLA-A2.1; [2]): 0.6

ELTEVFEFA [HPV18 peptide 6]
FI (Fluorescence Index) (HLA-A2.1): 1.1 | MF (mean HLA-A2.1 fluorescence) (HLA-A2.1): 289.0

KTVLELTEV [HPV18 peptide 5, residues 36-44 of HPV18 protein E6]
MF (mean HLA-A2.1 fluorescence) (HLA-A2.1; [4]): 467.5 | FI (Fluorescence Index) (HLA-A2.1; [5]): 2.3

SLYGTTLEQ [residues 89-97 of HPV16 protein E6]
binding ratio to standard (HLA-A3.2; [3]): 0.0080

LCTELQTTI [HPV16 peptide 3, residues 22-30 of HPV16 protein E6]
MF (mean HLA-A2.1 fluorescence) (HLA-A2.1; [1]): 113.6 | FI (Fluorescence Index) (HLA-A2.1; [2]): 0.7

KLPDLCTEL [HPV18 peptide 1, residues 13-21 of HPV18 protein E6]
MF (mean HLA-A2.1 fluorescence) (HLA-A2.1; [4]): 439.3 | FI (Fluorescence Index) (HLA-A2.1; [5]): 2.1

LFLNTLSFV [HPV18 peptide 13, residues 89-97 of HPV18 protein E7]
MF (mean HLA-A2.1 fluorescence) (HLA-A2.1; [4]): 360.3 | FI (Fluorescence Index) (HLA-A2.1; [5]): 1.6

AVDLYHFLK [reference compound]
IC50 (HLA-A11.2; read-out: 50% inhibition dose for the probe, unlabeled probe peptide): 9 nM

RLCVQSTHV [HPV16 peptide 14, residues 66-74 of HPV16 protein E7]
MF (mean HLA-A2.1 fluorescence) (HLA-A2.1; [1]): 250.0 | FI (Fluorescence Index) (HLA-A2.1; [2]): 2.8

CCRSSRTRR [residues 146-154 of HPV16 protein E6]
binding ratio to standard (HLA-A3.2; [3]): 0.0020

RHYCYSLYG [residues 84-92 of HPV16 protein E6]
binding ratio to standard (HLA-A3.2; [3]): 0.0036

QQYNKPLCD [residues 97-105 of HPV16 protein E6]
binding ratio to standard (HLA-A3.2; [3]): 0.0045

LLMGTLGIV [HPV16 peptide 16]
FI (Fluorescence Index) (HLA-A2.1): 0.8 | MF (mean HLA-A2.1 fluorescence) (HLA-A2.1): 118.8

TLEDLLMGT [HPV16 peptide 15, residues 78-86 of HPV16 protein E7]
MF (mean HLA-A2.1 fluorescence) (HLA-A2.1; [1]): 182.8 | FI (Fluorescence Index) (HLA-A2.1; [2]): 1.8

AMFQDPQER [residues 7-15 of HPV16 protein E6]
binding ratio to standard (HLA-A11.2): 0.8400

KCDSTLRLC [residues 60-68 of HPV16 protein E7]
binding ratio to standard (HLA-A3.2; [3]): 0.0012

SLQDIEITC [HPV18 peptide 2, residues 24-32 of HPV18 protein E6]
MF (mean HLA-A2.1 fluorescence) (HLA-A2.1; [4]): 243.9 | FI (Fluorescence Index) (HLA-A2.1; [5]): 0.7

TTLEQQYNK [residues 93-101 of HPV16 protein E6]
binding ratio to standard (HLA-A3.2; [3]): 0.0780

YMLDLQPET [HPV16 peptide 12, residues 11-19 of HPV16 protein E7]
MF (mean HLA-A2.1 fluorescence) (HLA-A2.1; [1]): 283.9 | FI (Fluorescence Index) (HLA-A2.1; [2]): 3.3

GTLGIVCPI [HPV16 peptide 17, residues 85-93 of HPV16 protein E7]
MF (mean HLA-A2.1 fluorescence) (HLA-A2.1; [1]): 216.1 | FI (Fluorescence Index) (HLA-A2.1; [2]): 2.3

PLCDLLIRC [HPV16 peptide 10, residues 102-110 of HPV16 protein E6]
MF (mean HLA-A2.1 fluorescence) (HLA-A2.1; [1]): 204.8 | FI (Fluorescence Index) (HLA-A2.1; [2]): 2.1

QLCTELQTT [HPV16 peptide 2, residues 21-29 of HPV16 protein E6]
MF (mean HLA-A2.1 fluorescence) (HLA-A2.1; [1]): 211.9 | FI (Fluorescence Index) (HLA-A2.1; [2]): 2.2

TLQDIVLHL [HPV18 peptide 10]
FI (Fluorescence Index) (HLA-A2.1): 2.7 | MF (mean HLA-A2.1 fluorescence) (HLA-A2.1): 519.6

LTNTGLYNL [HPV18 peptide 9, residues 93-101 of HPV18 protein E6]
MF (mean HLA-A2.1 fluorescence) (HLA-A2.1; [4]): 352.5 | FI (Fluorescence Index) (HLA-A2.1; [5]): 1.5
